From patent US20250388664A1 (BIOARCTIC, published 2025) come the findings set out here.

Like-named read-outs stand apart in the source and are kept apart here.

Test [1] has as its target T1, h/m helical domain chimera (SEQ ID NO:113) (human/mouse chimera, UniProt Q62351 90-763 (mouse entry)).
T1 construct: also called chimeric TfR1 consisting of human helical domain grafted on mouse TfR1 ectodomain
T1 chain: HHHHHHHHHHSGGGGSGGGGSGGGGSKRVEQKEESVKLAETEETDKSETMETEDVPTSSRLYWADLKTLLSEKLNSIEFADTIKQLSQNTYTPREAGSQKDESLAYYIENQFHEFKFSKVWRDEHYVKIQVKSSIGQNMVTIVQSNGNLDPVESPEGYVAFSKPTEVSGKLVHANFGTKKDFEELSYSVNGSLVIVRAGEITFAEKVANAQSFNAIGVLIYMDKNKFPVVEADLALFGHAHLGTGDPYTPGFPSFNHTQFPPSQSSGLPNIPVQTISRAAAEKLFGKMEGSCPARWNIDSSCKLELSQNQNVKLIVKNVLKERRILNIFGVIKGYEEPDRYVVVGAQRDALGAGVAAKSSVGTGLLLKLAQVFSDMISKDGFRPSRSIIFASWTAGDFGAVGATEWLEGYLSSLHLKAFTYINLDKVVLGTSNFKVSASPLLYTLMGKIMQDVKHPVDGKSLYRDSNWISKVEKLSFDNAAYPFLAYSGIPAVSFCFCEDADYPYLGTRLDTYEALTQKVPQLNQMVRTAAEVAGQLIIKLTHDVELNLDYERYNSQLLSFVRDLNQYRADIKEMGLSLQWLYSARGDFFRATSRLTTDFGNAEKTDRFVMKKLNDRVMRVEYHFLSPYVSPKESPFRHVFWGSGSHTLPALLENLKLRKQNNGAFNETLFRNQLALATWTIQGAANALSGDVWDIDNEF
As to the kind of experiment: indirect ELISA: plate coated with 1 µg/ml h/m helical domain chimera, mouse IgG titrated, anti-mouse IgG-HRP; x axis printed as 'TfR (ng/ml)'. Here is the method:
(§1) In the ELISA experiment, human, mouse or three different chimeric TfR1 receptors were used to coat ELISA plates (FIGS. 30A-30E). The ELISA protocol was slightly modified as follows from the indirect ELISA described in Example 15. […] The coated plates were then blocked. Dilution series of mouse IgG of the analyzed antibodies were prepared in PBS and incubated on the ELISA plates. Unbound antibodies were then washed off before incubating wells with a HRP-conjugated secondary, anti-mouse-IgG for 1 h. Plates were then washed again before addition of HRP substrate TMB for development and detection of antibody binding to the wells. TMB development was stopped by adding 0.5 M H₂SO₄ to the wells and ELISA responses measured as the OD at 450 nm in an ELISA plate reader.
For orientation: In an ELISA, binding on a coated surface is turned into a signal by an enzyme label.

The target in test [2] is T2, h/m apical domain chimera (SEQ ID NO:112) (human/mouse chimera).
T2 construct: also called chimeric TfR1 consisting of human apical domain grafted on mouse TfR1 ectodomain
T2 chain: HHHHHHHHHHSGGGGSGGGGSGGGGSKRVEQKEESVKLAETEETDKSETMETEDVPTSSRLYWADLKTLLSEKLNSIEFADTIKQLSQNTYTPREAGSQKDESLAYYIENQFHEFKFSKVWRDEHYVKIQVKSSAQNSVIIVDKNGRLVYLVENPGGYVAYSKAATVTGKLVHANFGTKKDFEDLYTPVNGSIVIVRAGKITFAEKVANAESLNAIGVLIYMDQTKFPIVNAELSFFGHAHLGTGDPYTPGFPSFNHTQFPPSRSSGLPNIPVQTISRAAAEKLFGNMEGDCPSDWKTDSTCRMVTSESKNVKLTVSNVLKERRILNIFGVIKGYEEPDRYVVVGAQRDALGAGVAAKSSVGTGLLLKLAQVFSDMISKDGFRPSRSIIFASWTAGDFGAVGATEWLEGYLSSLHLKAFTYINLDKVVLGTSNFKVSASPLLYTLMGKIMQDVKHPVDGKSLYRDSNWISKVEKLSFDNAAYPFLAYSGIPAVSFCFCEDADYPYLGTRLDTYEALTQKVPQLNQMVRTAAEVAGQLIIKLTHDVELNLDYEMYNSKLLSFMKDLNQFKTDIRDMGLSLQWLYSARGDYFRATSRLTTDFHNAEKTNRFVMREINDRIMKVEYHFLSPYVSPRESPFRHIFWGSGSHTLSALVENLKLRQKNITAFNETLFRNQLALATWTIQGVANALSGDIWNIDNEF
As to the kind of experiment: indirect ELISA: plate coated with 1 µg/ml h/m apical domain chimera, mouse IgG titrated, anti-mouse IgG-HRP; x axis printed as 'TfR (ng/ml)'. How it is done:
Plasma samples serially diluted from a starting dilution of 1/450 or hybridoma supernatants diluted 1/2 were added to the plates (50 μl/well; dilution buffer: PBS with 0.1% BSA and 0.05% TWEEN®-20) and incubated for 2 h at room temperature and then the plates were washed four times. […] After another wash (as above), 50 μl/well TMB substrate (K-Blue® Aqueous, Neogen) was added, and the reaction was stopped after 10-15 min with 50 μl/well of 0.5 M H₂SO₄. The optical density at 450 nm was read using a plate reader (Tecan). The endpoint titers were defined as the dilution above the average of the blank wells (background) plus 3 standard deviations of the blank wells.
as §1

Test [3] concerns the target T3, AβpE3-40 monomer (UniProt P05067 674-711, pyroglutamate at position 3 (N-terminal residue)). As to the kind of experiment: cell-based or functional assay.
In test [4] the target is T3, AβpE3-40 monomer. As to the kind of experiment: SPR, antibody immobilised, monomer injected, 1:1 fit. How it is done:
Single cycle kinetics with the binding molecules immobilized on a CM5 chip was used to measure binding to the AβpE3-40 monomer. For the measurements, 5 μg/ml of analyte binding molecule was immobilized on the chip. […] Regeneration of the surface between cycles was done by injecting 30 μl 3 M MgCl₂ (Cytiva, cat. No. 29234600). The binding data was fitted to a 1:1 interaction model.
Background: SPR reads the build-up and loss of mass on a sensor chip optically.

Test [5] deals with T4, truncated hTfR1 of SEQ ID NO:122 (human, UniProt P02786 122-760).
T4 construct: also called human TfR1; Human TfR1
As to the kind of experiment: SPR, FLAG-captured TfR1, bispecific injected, 1:1 fit.

Test [6] has as its target T3, AβpE3-40 monomer. As to the kind of experiment: inhibition ELISA, antigen titrated in solution, AβpE3-40 coat. How it is done: (§2) The tested molecules were incubated at a fixed concentration (0.1 μg/ml) with titrating concentrations of the different AβpE3 antigens. After incubation for 45 min at 900 rpm to reach equilibrium, the samples were added to a blocked and washed ELISA plate with an AβpE3-40 coat (0.5 μM). The samples were incubated on the plate for 25 min without shaking followed by washing, incubation with detection antibody, another washing step and finally incubation with alkaline phosphatase substrate.

Test [7] deals with T5, AβpE3-42 protofibrils (UniProt P05067 674-713, pyroglutamate at position 3 (N-terminal residue)).
T5 construct: range 3-42 (Aβ numbering); Soluble aggregates made from AβpE3-42 peptide, purified in the void peak of SEC; also called AβpE3-42 PF
The test is described as above. Here is the method: as §2

The target of test [8] is T4, truncated hTfR1 of SEQ ID NO:122. As to the kind of experiment: SPR, FLAG-captured TfR1, bispecific injected, 1:1 fit. Here is the method:
(§3) Binding of the purified bispecific binding molecules produced in Example 47 to human and cynomolgus TfR1 was evaluated using SPR on a Biacore 8K instrument (Cytiva). […] The interaction was measured using the single cycle kinetics method with a contact time of 120 s at a flow rate of 30 μl/min followed by a dissociation time of 600 s. Regeneration of the surface between cycles was done by injecting 10 mM glycine-HCl, pH 1.7. The binding data was fitted to a 1:1 interaction model. The tested molecules were diluted in HBS-EP+ (Cytiva, #BR100669). Experiments were performed at 25° C.
This is another data set of the same source.

Test [9] deals with T6, truncated cTfR1 of SEQ ID NO:123 (cynomolgus monkey, UniProt Q5RDH6 122-760 (Pongo abelii entry)).
T6 construct: also called cynomolgus TfR1
T6 chain: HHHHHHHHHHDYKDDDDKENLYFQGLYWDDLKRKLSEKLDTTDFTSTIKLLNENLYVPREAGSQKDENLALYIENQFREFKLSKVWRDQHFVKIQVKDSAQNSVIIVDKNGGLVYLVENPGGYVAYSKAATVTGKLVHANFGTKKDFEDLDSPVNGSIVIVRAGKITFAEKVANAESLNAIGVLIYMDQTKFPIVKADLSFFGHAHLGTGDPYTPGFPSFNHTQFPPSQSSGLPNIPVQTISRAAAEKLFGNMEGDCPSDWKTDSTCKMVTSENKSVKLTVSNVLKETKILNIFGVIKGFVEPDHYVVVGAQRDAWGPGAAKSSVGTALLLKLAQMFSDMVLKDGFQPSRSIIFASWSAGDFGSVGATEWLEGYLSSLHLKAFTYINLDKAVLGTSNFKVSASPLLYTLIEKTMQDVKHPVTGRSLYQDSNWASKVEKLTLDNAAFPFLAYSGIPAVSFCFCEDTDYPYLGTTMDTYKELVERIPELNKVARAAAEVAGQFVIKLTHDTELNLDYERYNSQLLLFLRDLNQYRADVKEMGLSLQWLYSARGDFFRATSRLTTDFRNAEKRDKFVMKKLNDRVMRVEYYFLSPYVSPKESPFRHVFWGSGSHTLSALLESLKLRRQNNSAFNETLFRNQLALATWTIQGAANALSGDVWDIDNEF
The description is as above. How it is done: as §3

Test [10] deals with T3, AβpE3-40 monomer. As to the kind of experiment: SPR, antibody immobilised, monomer injected, 1:1 fit. The source holds these as a separate data set.

T3 sequence (P05067 674-711): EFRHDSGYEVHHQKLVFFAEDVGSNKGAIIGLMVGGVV
T5 sequence (P05067 674-713): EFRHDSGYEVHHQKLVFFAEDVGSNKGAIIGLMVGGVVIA

B1: 24B4 (antibody, V domains shown)
VH: EVQLQQFGAELVKPGTSVKISCKASGYTFTDYNMDWVKQGHGKGLEWIGDINPNYDTTSYSQKFKGKATLTVDKSSSTAYMELRSLTSEDTAVYYCARSEAGNYYWYFDVWGAGTTVTVSS
VL: DIVMSQSPSSLAVSVGEKVTMSCKSSQSLLYSSNRKNYLAWYRQKPGQSPKLLIYWASTRESGVPDRFTGSGSGTDFTLTISSVKAEDLAVYSCQQYYNYPYTFGGGTKLEIK
notes: also called mouse antibody 24B4; clone 24B4
Consider B1, for which the binding result in test [1] and in test [2] was “no binding (tested: about 600 ng/ml)” throughout.

B2: BA001 (bispecific antibody, human IgG1, kappa)
light: EIVLTQSPLSLSVTLGQSASISCRSSQSLLDSNGKTYLHWFILRPGQSPRRLIYLVSILDSGVPDRFSGSGSGTDFTLKISRVEAEDVGVYYCVQGTHFPFTFGSGTKLEIKRTVAAPSVFIFPPSDEQLKSGTASVVCLLNNFYPREAKVQWKVDNALQSGNSQESVTEQDSKDSTYSLSSTLTLSKADYEKHKVYACEVTHQGLSSPVTKSFNRGEC
heavy 1: not shown
heavy 2: EVQLVQSGAEVVKPGASVRLSCKASGYSFTGFTMNWVRQALGQGLEWMGLINPYNGVTTYNQKFKGRLTMTRDMSTRTVYMDLSSLTYEDTAVYYCTREGNWEGVYWGQGTLVTVSSASTKGPSVFPLAPSSKSTSGGTAALGCLVKDYFPEPVTVSWNSGALTSGVHTFPAVLQSSGLYSLSSVVTVPSSSLGTQTYICNVNHKPSNTKVDKKVEPKSCDKTHTCPPCPAPELLGGPSVFLFPPKPKDTLMISRTPEVTCVVVDVSHEDPEVKFNWYVDGVEVHNAKTKPREEQYNSTYRVVSVLTVLHQDWLNGKEYKCAVSNKALPAPIEKTISKAKGQPREPQVYTLPPCRDELTKNQVSLWCLVKGFYPSDIAVEWESNGQPENNYKTTPPVLDSDGSFFLYSKLTVDKSRWQQGNVFSCSVMHEALHNHYTQKSLSLSPGGGGGSGGGGSGGGGSGGGGSDIQMTQSPSSVSASVGDRVTITCKSSQSLLYSTNQKNYLAWYQQKPGKAPKLLIYWASTRESGVPSRFSGSGSGTDFTLTISSLQPEDFATYYCQQYFIYPRTFGCGTKVEIKGGGGSGGGGSGGGGSGGGGSEVQLVQSGAEVKKPGSSVKVSCKASGYIFTDYNMDWVRQAPGQCLEWIGDINPDADTTSYNEKFKGRATLTVDKSTSTAYMELSSLRSEDTAVYYCARGGYSGSSYYHPMDYWGQGTLVTVSS
A word on the Kd: it is the concentration at which binding is half-saturated. As a reminder, the koff is the first-order rate constant of dissociation. A low value points to a long-lived complex. The kon is a measure of how fast the partners come together. Read a high kon as faster complex formation. The IC50 is the point on the concentration scale where inhibition reaches its midpoint. On to B2, for which, in test [3], the “Uptake of AβpE3-40 monomers in THP-1 cells, EC50” value turned out to be 2 nM. Moreover, the Kd in test [4] stood at 2.17 nM; in [5], 174 nM; in test [8], 190 nM; in test [9], 525 nM; in test [10], 2.1 nM. The koff in [4] was found to be 0.00012 s⁻¹; in [5], 0.0038 s⁻¹; in test [8], 0.0042 s⁻¹; in test [9], 0.01 s⁻¹; in [10] it was 0.00011 s⁻¹. Also, the kon in test [4] is 55800 M⁻¹ s⁻¹; in test [5], 22000 M⁻¹ s⁻¹; in [8] it was 22000 M⁻¹ s⁻¹; in test [9] it was 19000 M⁻¹ s⁻¹; in test [10], 54000 M⁻¹ s⁻¹. Also, the IC50 in test [6] amounted to 1.1 nM; in test [7], 3.1 nM.
